Our source for the fold intensity of the co-IP against the other three Atg8 family members values is paper PMC12913940.

The assay has as its target Crassostrea gigas GABARAPL2, Flag-tagged (Crassostrea gigas). Description: co-IP.

As for “Crassostrea gigas starch-binding domain-containing protein 1 (STBD1), HA-tagged (natural protein)”, the fold intensity of the co-IP against the other three Atg8 family members came out at 4.4 fold.
